Measurements reported in patent US20230340154A1 (Hoffmann-La Roche, published 2023).

Target: T1, murine CD40 (mouse, UniProt P27512 20-289)
T1 construct: Endogenous CD40 on cells in the tumor microenvironment of C57BL/6J mice; also called mouse CD40; muCD40
T1 sequence: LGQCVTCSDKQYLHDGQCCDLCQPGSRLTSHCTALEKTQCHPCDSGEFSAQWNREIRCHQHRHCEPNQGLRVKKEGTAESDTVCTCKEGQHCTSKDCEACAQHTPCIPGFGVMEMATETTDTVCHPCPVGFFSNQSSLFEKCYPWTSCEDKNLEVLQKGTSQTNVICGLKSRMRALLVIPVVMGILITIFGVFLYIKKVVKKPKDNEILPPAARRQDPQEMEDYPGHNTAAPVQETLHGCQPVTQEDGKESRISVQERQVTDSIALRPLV
Assay: in vivo fluorescence imaging of the Alexa647-labelled antibody in TC-1 tumors (devoid of FAP expression), four days after i.p. injection
Source text: To assess FAP-CD40 antibody access to the TC-1 tumor, we intraperitoneally injected the anti-FAP-CD40 antibody labeled with Alexa647 into TC-1 and mEERL95 tumor-bearing mice that underwent local irradiation. The antibody was detectable in both tumors four days upon administration. No significant difference in the fluorescence intensity was detected in both TC-1 and mEERL95 tumors (FIG. 4H) which present similar CD40 mRNA expression levels (FIG. 4C).

B1: muCD40 x FAP (28H1) 4+1 bispecific antibody (VH on knob and VL on hole) (P1AD9139) (bispecific antibody)
light: DTVLTQSPALAVSPGERVTISCRASDSVSTLMHWYQQKPGQQPKLLIYLASHLESGVPARFSGSGSGTDFTLTIDPVEADDTATYYCQQSWNDPWTFGGGTKLELKRTVAAPSVFIFPPSDEQLKSGTASVVCLLNNFYPREAKVQWKVDNALQSGNSQESVTEQDSKDSTYSLSSTLTLSKADYEKHKVYACEVTHQGLSSPVTKSFNRGEC
heavy 1: not shown
heavy 2: EVQLVESDGGLVQPGRSLKLPCAASGFTFSDYYMAWVRQAPTKGLEWVASISYDGSSTYYRDSVKGRFTISRDNAKSTLYLQMDSLRSEDTATYYCGRHSSYFDYWGQGVMVTVSSASTKGPSVFPLAPSSKSTSGGTAALGCLVKDYFPEPVTVSWNSGALTSGVHTFPAVLQSSGLYSLSSVVTVPSSSLGTQTYICNVNHKPSNTKVDKKVEPKSCDGGGGSGGGGSEVQLVESDGGLVQPGRSLKLPCAASGFTFSDYYMAWVRQAPTKGLEWVASISYDGSSTYYRDSVKGRFTISRDNAKSTLYLQMDSLRSEDTATYYCGRHSSYFDYWGQGVMVTVSSASTKGPSVFPLAPSSKSTSGGTAALGCLVKDYFPEPVTVSWNSGALTSGVHTFPAVLQSSGLYSLSSVVTVPSSSLGTQTYICNVNHKPSNTKVDKKVEPKSCDKTHTCPPCPAPEAAGGPSVFLFPPKPKDTLMISRTPEVTCVVVDVSHEDPEVKFNWYVDGVEVHNAKTKPREEQYNSTYRVVSVLTVLHQDWLNGKEYKCKVSNKALGAPIEKTISKAKGQPREPQVCTLPPSRDELTKNQVSLSCAVKGFYPSDIAVEWESNGQPENNYKTTPPVLDSDGSFFLVSKLTVDKSRWQQGNVFSCSVMHEALHNHYTQKSLSLSPGGGGGSGGGGSGGGGSGGGGSEIVLTQSPGTLSLSPGERATLSCRASQSVSRSYLAWYQQKPGQAPRLLIIGASTRATGIPDRFSGSGSGTDFTLTISRLEPEDFAVYYCQQGQVIPPTFGQGTKVEIK
notes: Four anti-mouse CD40 (FGK4.5) Fabs, human IgG1 P329G LALA knob-into-hole Fc, and 28H1 VH on the knob chain and VL on the hole chain; That paragraph says only 'anti-FAP-CD40 antibody'; also called FAP-CD40; anti-FAP-CD40
Q: Does B1 bind?
A: binds
